Source: the supplement of paper PMC10724198
± gives the standard deviation of the averaged measurements.

Assays:
[1] = test system: Saccharomyces cerevisiae; assay: protein stability index of tFT-peptide fusion (C-terminal peptide) (PSI (0-1 scale)); higher = more stable (slower turnover)
Method: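 MPS profiling in S. cerevisiae of the tFT-X12 degron library: putative degron peptides plus stable controls, 12 aa, fused to the C-terminus of a sfGFP-mCherry timer. Cells are FACS-sorted into 8 mCherry/sfGFP bins and deep-sequenced. PSI runs from 0 (unstable) to 1 (stable). Backgrounds are wild type, das1Δ and doa10Δ at 30 °C, and wild type, das1Δ, cdc34-1 and cdc53-1 at 37 °C; 2-3 technical replicates each.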

[2] = test system: Saccharomyces cerevisiae; assay: as above; conditions: genetic background: wild type; temperature: 30 C
[3] = genetic background: cdc34-1, temperature: 37 C
[4] = genetic background: cdc53-1, temperature: 37 C
[5] = genetic background: das1 deletion, temperature: 30 C
[6] = genetic background: das1 deletion, temperature: 37 C
[7] = genetic background: doa10 deletion, temperature: 30 C
[8] = genetic background: wild type, temperature: 30 C
[9] = genetic background: wild type, temperature: 37 C
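Also: PSI is a weighted mean of sequencing reads over stability bins, variants kept only with over 10 reads, mCherry proximal and sfGFP distal, peptide attached via GGGS linker.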

Sequence	protein stability index [1, 3]	protein stability index [1, 4]	protein stability index [1, 5]	protein stability index [1, 6]	protein stability index [1, 7]	protein stability index [1, 8]	protein stability index [1, 9]	protein stability index [2]
SQCVVYLSVRFS	0.358 ± 0.067	0.5 ± 0.017	0.34 ± 0.028	0.47856 ± 0.00019	0.326 ± 0.014	0.353 ± 0.011	0.4565 ± 0.0028	0.447 ± 0.024
SQKKKIKKYKET	0.574 ± 0.032	0.665 ± 0.14	0.644 ± 0.032	0.706 ± 0.018	0.172 ± 0.0036	0.147 ± 0.041	0.208 ± 0.049	0.217 ± 0.033
SREQANTVYRLI	0.689 ± 0.011	0.7132 ± 0.0048	0.631 ± 0.018	0.7187 ± 0.0036	0.254 ± 0.0066	0.3 ± 0.0074	0.553 ± 0.0053	0.376 ± 0.008
SRFFSCCVFPSF	0.704 ± 0.02	0.7941 ± 0.0034	0.67 ± 0.037	0.781 ± 0.016	0.6764 ± 0.0041	0.654 ± 0.0089	0.737 ± 0.023	0.766 ± 0.017
SRKRIVALMLSG	0.628 ± 0.012	0.678 ± 0.061	0.615 ± 0.029	0.686 ± 0.032	0.153 ± 0.013	0.18 ± 0.02	0.273 ± 0.0082	0.292 ± 0.013
SRNSSRYLLLVS	0.539 ± 0.05	0.58 ± 0.076	0.52 ± 0.046	0.649 ± 0.0096	0.211 ± 0.032	0.251 ± 0.027	0.405 ± 0.011	0.316 ± 0.013
SRVGAGVVRGVG	0.481 ± 0.031	0.534 ± 0.015	0.498 ± 0.007	0.5403 ± 0.0051	0.512 ± 0.011	0.493 ± 0.012	0.5391 ± 0.0031	0.488 ± 0.038
SRVHHLWAILVP	0.231 ± 0.015	0.265 ± 0.0052	0.238 ± 0.034	0.3712 ± 0.0019	0.18 ± 0.0099	0.228 ± 0.026	0.339 ± 0.0039	0.345 ± 0.016
SSGAVGLVIVVC	0.113 ± 0.028	0.185 ± 0.01	0.214 ± 0.049	0.309 ± 0.0093	0.155 ± 0.018	0.205 ± 0.023	0.247 ± 0.0078	0.276 ± 0.014
SSGRLRFISRIH	0.654 ± 0.033	0.7064 ± 0.0053	0.656 ± 0.048	0.7487 ± 0.0033	0.316 ± 0.019	0.347 ± 0.018	0.5972 ± 0.0037	0.454 ± 0.027
SSVFLGWLIVCY	0.0861 ± 0.0015	0.115 ± 0.033	0.173 ± 0.043	0.2851 ± 0.0027	0.154 ± 0.0099	0.168 ± 0.021	0.255 ± 0.027	0.245 ± 0.0037
SSVGLFVLLCLV	0.31 ± 0.028	0.333 ± 0.017	0.271 ± 0.039	0.503 ± 0.07	0.2 ± 0.0056	0.205 ± 0.015	0.323 ± 0.0056	0.302 ± 0.02
STVGAWGRVGEG	0.435 ± 0.018	0.462 ± 0.038	0.418 ± 0.035	0.484 ± 0.0078	0.45024 ± 0.00039	0.438 ± 0.016	0.472 ± 0.0089	0.459 ± 0.025
SVFFRPVLICCA	0.0234 ± 0.00059	0.0313 ± 0.0091	0.0774 ± 0.01	0.0628 ± 0.0047	0.0558 ± 0.0082	0.0558 ± 0.013	0.048 ± 0.0039	0.101 ± 0.037
SVLAIWLTVTLK	0.0666 ± 0.029	0.0696 ± 0.029	0.146 ± 0.016	0.197 ± 0.0027	0.0915 ± 0.023	0.0938 ± 0.034	0.139 ± 0.0076	0.145 ± 0.0018
SVLVSVVLFVRS	0.114 ± 0.055	0.237 ± 0.021	0.176 ± 0.019	0.33663 ± 7.1e-05	0.126 ± 0.032	0.168 ± 0.033	0.289 ± 0.026	0.279 ± 0.0029
SVSMYPKPHLIC	0.571 ± 0.057	0.682 ± 0.023	0.596 ± 0.034	0.698 ± 0.034	0.119 ± 0.015	0.13 ± 0.017	0.181 ± 0.015	0.243 ± 0.0026
SVSRIFRTFSCY	0.627 ± 0.023	0.759 ± 0.054	0.668 ± 0.013	0.681 ± 0.047	0.216 ± 0.035	0.224 ± 0.0094	0.396 ± 0.041	0.321 ± 0.07
SVVYVIYCGGIL	0.446 ± 0.0082	0.481 ± 0.075	0.31 ± 0.036	0.555 ± 0.019	0.29 ± 0.0048	0.336 ± 0.013	0.503 ± 0.036	0.427 ± 0.036
